Data as given in the nanobody polyreactivity screen of Harvey et al. (2022).

Test: yeast display, Sf9 membrane polyspecificity reagent, FACS + sequencing; frameworks hold sequencing errors
Summary of the method: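 Galactose induction of a Saccharomyces cerevisiae BJ5465 synthetic nanobody display library ran 36–48 hours. The cells were then stained for 1 hour at 4 °C with 10% biotinylated, detergent-solubilized Sf9 membrane reagent, pulled down on streptavidin microbeads and FACS-sorted into low and high (top ~1%) gates on expression and reagent-binding fluorescence. Labels for polyreactivity follow the gate of origin.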

Sequence	polyreactivity (PSR sort gate)
QVQLVESGGGLVQAGGRLRLSCAASVNTFGANAMGWYRQAPGKESELVADITQSGGSTYYADSVKGRFTISRDNAKNTVYLQMNSLKPEDTALYYCNIVTRYYTPFEEYDYWGQGTQVTVSS	low polyreactivity
QVQLVESGGGLVQAGGRLRLSCAATGRTFGRNAMGWYRQAPGKERELVAAINGNGGRTYYADSVKGRFTISRDNAKNTVYLQMNSLKPEDTAVYYCAADLRRSDYDYWGQGTKVTVSS	high polyreactivity
QVQLVESGGGLVQAGGRLRLSCAATGRTFLPNAMGWYRQAPGKERELVASINGDGTTNYADSVKGRFTISRDNAKNTVYLQMNSLKPEDTAVYYCAADGYGGYYRGTYYTVYYWGQGTQVTLSS	low polyreactivity
QVQLVESGGGLVQAGGRLRLSCAAYGRIFDYYAMGWYRPAPGKEREFVAGITSTGGSTYYADSVKGRFTISRDNAMNTVYFQMNSLKPEDTPVYYCNVVKRLRHGYDYWGQGNQVTVSS	high polyreactivity
QVQLVESGGGLVQAGGRLRLSCAAYGRTFSDYTMGWYRQAPGKERELVAAISRRGGTTYYADSVKGRFTISRDNAKNTVYLQMNSLKPEDTAVYYCAAKRYRPKYEYDYWGQGTQVTVSS	high polyreactivity
QVQLVESGGGLVQAGGRLRLSCAAYGSIFMYYAMGWYRQSPVKERELVAAITRGGSTYYADSVKGRFTISRDNAKNTVYLQMNSLKPEDTAVYYCAATTFRSVGYDYWGQGTQVTVSS	low polyreactivity
QVQLVESGGGLVQAGGRLRLSCADSGRIFVKNTMGWYRQAPGKERELVAAISWSGGSTYYADSVKGRFTISRDNAKNTVYLQMNSLKPEDTAVYYCNARKRTKLSYPKFDYWGQGTQVTVSS	high polyreactivity
QVQLVESGGGLVQAGGRLRLSCAHSGIIFFFYAMGWYRQAPGKERELVAAISDDGVSTDYADSVKGRFTISRDNAKNTVYLQMNSLKPEDTAVYYCAAKTERVYPWFSFGYWGQGTQVTVSS	low polyreactivity
QVQLVESGGGLVQAGGRLRLSCAPSGSTFSTYAMGSYRQAPGNERELVAVITWRGGSTYYADSVKGRFTISRDNAKNTVYLQMNSLKPEDTAVYYCAAEGESPEYDYWGQGTQVTVSS	low polyreactivity
QVQLVESGGGLVQAGGRLRLSCDASGSIFYYYTMGWYRQAPGKEREFVAAITWRGASTYYADSVKGRFTISRDNAKNTVDLKMNSLKPEDTAVDYCNARWRVPRYRYDYWGQGTQVTVSS	high polyreactivity
QVQLVESGGGLVQAGGRLRLSCTASGRPLYNYTMGWYRQAPGKERELVATINFSGGSTYYADSVKGRFTISRDNAKNTVYLQMNSLKQEDTAVYYCTARGYHYAYKGAYLGDDYWGQGTQVTVSS	low polyreactivity
QVQLVESGGGLVQAGGRLRLSSAASGLTFPYYAMGWYRQAPGKERELVAVITTSTGTTYYADSVKGRFTISRDNAKNTVYLQMNSLKPEVTAVYYCATDTGAYWYSLYDYWGQGTQVTVSS	low polyreactivity
QVQLVESGGGLVQAGGRLRLSSAASGRIFASNAMGWYRQAPGKERELVARIDSGGITNYADSVKGRFTISRDNAKNTVYFQMNSLKPEDTGVYYCAKSVGWWSPPLGVYWVQGTQVTVSS	low polyreactivity
QVQLVESGGGLVQAGGRLRLSSAASGRTFYPNAMGWYRKAPLKERELVAAISGSGGSTYYADSVKGRFTISRDNAKNTVYLQMNSLKPEDTAVYYCAAYPEYLVGYRYGSWGQGTQVTVSS	high polyreactivity
QVQLVESGGGLVQAGGRLRLTCAASASIFYYYTMGWYRQAPGKERELVAAINSIGGRTYYADSVKGRFTISRDNAKNTVYLQMNSLKQEDNAVYYCNAVLDPGDQDDYDYWGQGTQVTLSS	low polyreactivity
QVQLVESGGGLVQAGGRLRLTCAASGYIFDVNAMGWYRHAPGKERELVAAISQRGTRTYYADSVKGRFTISRDNAKNSVYLQMNSLKPEDTAVYFCNRGGWRQYDSWVQGTQVTVSS	high polyreactivity
QVQLVESGGGLVQAGGRLSLSCAASGSIFNQYAMGWHRQAPGKERELVAAISSDGGRTYYADSVKGRFTISRDNAKITVYLQMNSLKPEDTAVYYCNADFPAYGLECDVYWGQGTQVTVSS	low polyreactivity
QVQLVESGGGLVQAGGRRRLICAASGSTFVRNAMGWYRQAPGKERELVATISSGGGTKYADSVKGRFTISRDNAKNTVYLQMNSLKPEDTAVYYCAARYRSYAVRLRGYDYWGQGTQVTVSS	high polyreactivity
QVQLVESGGGLVQAGGSGRLSCAASGRTTRDYAMGWYRQAPGKERELVAAIRWRGVSTYYADSVKGRFTISRDNAKNTVDVQMNSLKPEDTAVYYCAKRESVSTSAGKGAMDSWGQGTQVTVSS	high polyreactivity
QVQLVESGGGLVQAGGSGRLSCAASGSILPSYAMGWYRQAPGKERELVAAISRRGGSTYYADSVKGRFSISRDNAKNTVYLQMNSLKPEDTAVYYCAAGSYSGYDYWGQGTQVTVSS	low polyreactivity
QVQLVESGGGLVQAGGSHRFRCAASGSTIVSDAMGLYRHAPGKERELDATISWRGGSTYYADSVKGRFTISRDNAKNTVYLQMNSLKPEDTAVYDCAADLWHSQYYYGYEYWGQGTQVNVSS	low polyreactivity
QVQLVESGGGLVQAGGSHRLSCAASGFIFGRNAMGWYRQATGKDRELVDANTRSGGSTYYADSVKGRFTISRDNAKNTVYLQLYSLKPEDTAVYYCAKGLFTWGVFRVGIRDDYWGQGTQVTVSS	high polyreactivity

Sequence	polyreactivity (PSR sort gate)
QVQLVESGGGLVQAGGSHRLSCAASGFTFTYYAMGWYRQAPGKERELVADITSGGGTNYADSVKGRFTISRDNAKNTVFLQMNSLKPEDTAVYYCAADAYHQGMDYWGQGTQVTVSS	low polyreactivity
QVQLVESGGGLVQAGGSHRLSCAASGGTFSNNAMGWYRQAPGKERELVAAISNSGGRTYYADSVKGRFTISRDNAKNTVYLQMNSLKPEDTAVYYCNARYRLMDYWGQGTQVTVSL	high polyreactivity
QVQLVESGGGLVQAGGSHRLSCAASGITFTVNSMGWYRQAPGKERELVAAISNDGSTYYADSVKGRFTISRDNAKNTVYLQMNSLKPEDTAVYYCAADTWDDFGPYGYDYWGQGTHVTVSS	low polyreactivity
QVQLVESGGGLVQAGGSHRLSCAASGLIFPYNAMGWYRQAPGKERELVAAIDSGVTTYYADSVKGRFTISRDNAKNTVYLQMNSLKPEDTAVYYCAADGLPGPEGDSWGQGTQVTVSS	low polyreactivity
QVQLVESGGGLVQAGGSHRLSCAASGLTFFTYAMGWYRQAPGKERELVATISSRGGRTYYADSVKGRFTISRDNAKNTVYLQMNSLKPEDTAVYYCAARGVWKSKHNYWGQGTQVTVSS	high polyreactivity
QVQLVESGGGLVQAGGSHRLSCAASGRIFDKNAMGWYRQAPGKERELVAAINRSGGRTYYADSVKGRFTISRDNAKNTVYLQMNSLKPEDTAVYYCAADTQGSRYDYWGQGTQVTVSS	high polyreactivity
QVQLVESGGGLVQAGGSHRLSCAASGRIFTSNTMGWYRQAPGKERELVAAITSSGGSMYYADSVKGRFTISRDNAKNTVYLQMNSLIPEDTAVYYCAADTIGYHYWYDYWGQGTQVTVSS	low polyreactivity
QVQLVESGGGLVQAGGSHRLSCAASGRIYYYTMGWYRQAPGKERELVATITSSGSSTYYADSVKGRFTISRDNAKNTFYLQLNRLKPEDTAVYYCAAAGGGVRKVWGGSRYGYWGQGTQVTVSS	high polyreactivity
QVQLVESGGGLVQAGGSHRLSCAASGRTFCKYAMGWYRQAPGKERELVAAITAGGGTKYADSVKGRFTISRDNAKNTVYLQMNSLKPEDTAVYYCAAASGSRRHGYWGQGTQVTVSS	high polyreactivity
QVQLVESGGGLVQAGGSHRLSCAASGRTFVVYAMGWYRQAPGKERELVARIRWRDVSTYYADSVKGRFTISRDNAKTTVYLQMNSLKPEDTAVYYCAARSYTGGGRLYYWGQGTQVTVSS	high polyreactivity
QVQLVESGGGLVQAGGSHRLSCAASGSIFFSNARGWYRQAPGNERELFAAITWTGGSTYYADSVKGRFTISRDNAKNTVYLQMNSLKPEDTAVYYCNAAHQRDWYYAIYHLYYSPYYYWGQGSQVTVSS	low polyreactivity
QVQLVESGGGLVQAGGSHRLSCAASGSIFRQNAMGWYRQAPGKERELVAAITRGGGGTTYYADSVKGRFTISRDNAKNTVYLQMNSLKPEDTAVYYCAKAYEVRVEVDYWGQGTQVTVSS	low polyreactivity
QVQLVESGGGLVQAGGSHRLSCAASGSIFYFNAMGWYRQAPGKEREFVAGITTSGGSTYYADSVKGRFTISRDNAKNTVYLQMNSLKPEDTAVYYCNIVWVYAVTPSSWYKYGSWGQGTQVTVSS	low polyreactivity
QVQLVESGGGLVQAGGSHRLSCAASGSTFDTYPMGWYRQEPGKERELVAAISRSGTSTYYADSVKGRFTISRDNAKNTVYLQMKSLKPEDTAVYYCAAYGPRVNGEIGREYYYWGQGTQVTVSS	low polyreactivity
QVQLVESGGGLVQAGGSHRLSCAASGSTFFRNAKGWYSQAPGKEREWVAANSYSGDSTYYADSVKGRFTISRDNEKNTVSLQMNRLKPDDTAVYYSNAVLFRYRYNYWGQGTQVNVSS	high polyreactivity
QVQLVESGGGLVQAGGSHRLSCAASGSTFFSYAMGWYRQAPGKERELVAAITSNGGTTHYADSVKGRFTISRDNAKNTVYLQMNSLKPEDTAVYYCAKAQGHVRGSRGLQGGRYDYWGQGTQVTVSS	low polyreactivity
QVQLVESGGGLVQAGGSHRLSCAASGSTFVVYSLGWYRQAPGKERELVAAITSSGGRTYYADSVKGRFTISRDNAKNTVYLQMNSLKPDDTAVYYGNAVYSRQSSNKGEYWGQGTQVTVSW	high polyreactivity
QVQLVESGGGLVQAGGSHRLSCAASGTFKAYAMGWYRQAPGKERELVAVISNGGSTYYADSVKGRFTISRDNAKNTVYLQMNSLKPEDTAVYYCAARRGWYAYRFLSGSRLHYYWGQGTQVTVSS	high polyreactivity
QVQLVESGGGLVQAGGSHRLSCAASRRIFGYNAMGWYRKAPGKERELVAAIRYSGGRTYYADSVKGRFTISRDNAKNTVYLQMNSLKPEDTAVYYCAATAFDKLKVWYYYWGQGTQVTVSS	high polyreactivity
QVQLVESGGGLVQAGGSHRLSCAAYGYTIPFYTMGWYRQAPGKERDLVAAINSGGSTYYADSVKGRFTISRDNAKNTVYLQMNTLKPEDTAVYYCAVEGGFRVRYQAQYRYYYWGQGTQVIVSS	high polyreactivity
QVQLVESGGGLVQAGGSHRLSCASSGIIFAWYVMGWSRQAPGKDSELVAAITQSGGSTFYADSVKGRFTISRDNAKNTVYLQMNSLKPEDTEVYYCNTEDFFNVPEMDSWGQGTQVTVSS	low polyreactivity
